The source of these data is paper PMC5931518, “Architecture of the U6 snRNP reveals specific recognition of 3′-end processed U6 snRNA”.

The target of data set [1] is Prp24-8Asub;Lsm2-8 mostly wild type (Saccharomyces cerevisiae;Saccharomyces cerevisiae) (UniProt P38203+P57743+P40070+P40089+Q06406+P53905+P47093). Kind of data set: EMSA. To be noted: Lsm2-8 titrated onto U6 pre-bound with 20 nM Prp24-8Asub; FP: 50 mM KCl or as listed 100 mM KCl in both 2x buffers, HEPES (10 mM acid + 10 mM Na salt), 10% glycerol, 1 mM TCEP, tRNA, heparin, BSA, 0.3 nM FAM-RNA ….
Prp24-8Asub;Lsm2-8 mostly wild type (Saccharomyces cerevisiae;Saccharomyces cerevisiae), sequence (P40070 whole entry, looked up, one chain of several): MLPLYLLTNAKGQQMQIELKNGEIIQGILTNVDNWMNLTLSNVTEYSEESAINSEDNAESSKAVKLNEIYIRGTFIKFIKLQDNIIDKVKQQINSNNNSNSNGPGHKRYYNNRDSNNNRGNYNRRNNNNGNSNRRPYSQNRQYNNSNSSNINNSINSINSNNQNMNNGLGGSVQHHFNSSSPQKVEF

Data set [2] addresses Prp24 (EMSA, wild type);Lsm2-8 mostly wild type (Saccharomyces cerevisiae;Saccharomyces cerevisiae) (UniProt P38203+P57743+P40070+P40089+Q06406+P53905+P47093). The experiment in a line: EMSA. To be noted: Lsm2-8 titrated onto U6 pre-bound with 20 nM Prp24; FP: 50 mM KCl or as listed 100 mM KCl in both 2x buffers, HEPES (10 mM acid + 10 mM Na salt), 10% glycerol, 1 mM TCEP, tRNA, heparin, BSA, 0.3 nM FAM-RNA ….

The target in data set [3] is T1, Lsm2-8 Lsm2-K20E (Saccharomyces cerevisiae, UniProt P38203;P57743;P40070;P40089;Q06406;P53905;P47093 …, K20E).
T1 sequence 1: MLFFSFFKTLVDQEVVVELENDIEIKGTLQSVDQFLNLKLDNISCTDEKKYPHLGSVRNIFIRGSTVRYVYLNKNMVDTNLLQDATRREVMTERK
T1 sequence 2: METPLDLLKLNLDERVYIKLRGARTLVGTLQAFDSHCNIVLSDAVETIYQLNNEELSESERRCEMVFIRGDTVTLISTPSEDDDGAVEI
T1 sequence 3: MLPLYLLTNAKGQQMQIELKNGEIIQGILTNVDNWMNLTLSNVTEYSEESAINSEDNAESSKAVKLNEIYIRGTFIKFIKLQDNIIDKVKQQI
T1 sequence 4: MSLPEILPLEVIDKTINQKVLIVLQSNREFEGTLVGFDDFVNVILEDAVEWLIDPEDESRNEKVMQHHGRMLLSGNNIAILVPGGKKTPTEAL
T1 sequence 5: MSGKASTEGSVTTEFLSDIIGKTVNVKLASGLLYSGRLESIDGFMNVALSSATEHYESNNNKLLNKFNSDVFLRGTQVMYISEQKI
T1 sequence 6: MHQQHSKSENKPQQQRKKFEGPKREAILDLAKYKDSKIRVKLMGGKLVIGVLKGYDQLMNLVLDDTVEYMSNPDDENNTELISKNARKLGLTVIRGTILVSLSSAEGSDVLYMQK
T1 sequence 7: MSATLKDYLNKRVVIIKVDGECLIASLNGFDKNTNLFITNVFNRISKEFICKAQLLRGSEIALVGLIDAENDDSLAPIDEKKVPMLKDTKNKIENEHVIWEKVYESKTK
The experiment in a line: fluorescence polarization; FP: 50 mM KCl or as listed 100 mM KCl in both 2x buffers, HEPES (10 mM acid + 10 mM Na salt), 10% glycerol, 1 mM TCEP, tRNA, heparin, BSA, 0.3 nM FAM-RNA; EMSA: 100 mM KCl, 20% sucrose, 20 mM bis-tris/10 mM HCl pH ~6.5, 1 mM EDTA, 1 mM TCEP, 0.01% Triton X-100, tRNA, heparin, BSA, room temperature, gel at 4 C. To be noted: protein: recombinant; tags: as P1; copies: 1;1;1;1;1;1;1; label: 5'-FAM; single strand.

Data set [4] concerns the target T2, Lsm2-8 Lsm8-delC (Saccharomyces cerevisiae, UniProt P38203;P57743;P40070;P40089;Q06406;P53905;P47093 …).
T2 sequence 1: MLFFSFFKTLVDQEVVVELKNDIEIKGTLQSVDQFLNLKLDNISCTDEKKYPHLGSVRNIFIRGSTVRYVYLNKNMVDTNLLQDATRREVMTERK
T2 sequence 2: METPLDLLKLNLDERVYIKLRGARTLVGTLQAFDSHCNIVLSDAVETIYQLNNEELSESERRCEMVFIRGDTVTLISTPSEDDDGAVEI
T2 sequence 3: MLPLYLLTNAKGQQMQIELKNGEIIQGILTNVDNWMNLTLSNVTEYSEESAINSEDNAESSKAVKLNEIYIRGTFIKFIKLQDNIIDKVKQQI
T2 sequence 4: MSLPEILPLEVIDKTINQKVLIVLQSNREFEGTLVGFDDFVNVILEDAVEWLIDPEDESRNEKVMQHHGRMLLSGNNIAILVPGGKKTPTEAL
T2 sequence 5: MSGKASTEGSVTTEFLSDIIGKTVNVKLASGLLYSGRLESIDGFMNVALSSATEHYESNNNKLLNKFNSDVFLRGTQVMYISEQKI
T2 sequence 6: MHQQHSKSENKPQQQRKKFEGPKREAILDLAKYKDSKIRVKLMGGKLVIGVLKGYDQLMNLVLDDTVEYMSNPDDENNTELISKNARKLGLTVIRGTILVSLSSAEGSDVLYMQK
T2 sequence 7: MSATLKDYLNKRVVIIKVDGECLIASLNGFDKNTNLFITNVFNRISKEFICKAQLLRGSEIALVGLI
The description is as above. As to conditions: protein: recombinant; tags: as P1; copies: 1;1;1;1;1;1;1; label: 5'-FAM; single strand.

Data set [5] has as its target T3, Lsm2-8 construct 2 (WT) (Saccharomyces cerevisiae, UniProt P38203;P57743;P40070;P40089;Q06406;P53905;P47093 …).
T3 sequence 1: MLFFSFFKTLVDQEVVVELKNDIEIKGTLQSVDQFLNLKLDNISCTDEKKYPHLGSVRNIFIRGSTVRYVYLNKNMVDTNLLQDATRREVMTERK
T3 sequence 2: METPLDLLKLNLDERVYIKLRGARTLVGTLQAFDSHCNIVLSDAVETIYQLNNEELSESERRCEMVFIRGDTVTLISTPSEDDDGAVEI
T3 sequence 3: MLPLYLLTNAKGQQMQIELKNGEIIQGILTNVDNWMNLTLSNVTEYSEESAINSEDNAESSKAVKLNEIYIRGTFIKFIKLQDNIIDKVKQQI
T3 sequence 4: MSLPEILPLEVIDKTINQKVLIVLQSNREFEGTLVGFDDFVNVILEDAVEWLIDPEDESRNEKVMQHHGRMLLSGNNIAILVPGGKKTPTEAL
T3 sequence 5: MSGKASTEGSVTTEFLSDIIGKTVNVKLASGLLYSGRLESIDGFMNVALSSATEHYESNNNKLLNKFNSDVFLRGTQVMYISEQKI
T3 sequence 6: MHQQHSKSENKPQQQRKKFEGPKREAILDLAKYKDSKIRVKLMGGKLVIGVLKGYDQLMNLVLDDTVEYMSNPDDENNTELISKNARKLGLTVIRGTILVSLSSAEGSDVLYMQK
T3 sequence 7: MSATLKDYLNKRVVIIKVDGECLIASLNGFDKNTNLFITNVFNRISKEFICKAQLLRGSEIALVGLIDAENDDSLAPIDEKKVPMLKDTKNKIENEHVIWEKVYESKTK
The description is as above. To be noted: protein: recombinant; tags: Lsm8 C-terminal His6 (non-cleavable); Lsm3 C-terminal StrepII (non-cleavable); MBP on Lsm6 (TEV-labile); copies: 1;1;1;1;1;1;1; label: 5'-FAM; single strand.

Data set [6] addresses T4, Lsm2-8 Lsm3-R21A (Saccharomyces cerevisiae, UniProt P38203;P57743;P40070;P40089;Q06406;P53905;P47093 …, R21A).
T4 sequence 1: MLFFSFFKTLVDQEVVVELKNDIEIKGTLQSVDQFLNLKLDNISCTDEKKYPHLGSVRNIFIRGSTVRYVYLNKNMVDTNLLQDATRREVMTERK
T4 sequence 2: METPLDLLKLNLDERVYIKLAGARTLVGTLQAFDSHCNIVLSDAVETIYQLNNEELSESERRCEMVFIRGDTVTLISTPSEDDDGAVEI
T4 sequence 3: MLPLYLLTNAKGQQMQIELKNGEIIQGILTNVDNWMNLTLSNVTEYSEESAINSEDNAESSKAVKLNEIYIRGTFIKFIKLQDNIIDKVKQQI
T4 sequence 4: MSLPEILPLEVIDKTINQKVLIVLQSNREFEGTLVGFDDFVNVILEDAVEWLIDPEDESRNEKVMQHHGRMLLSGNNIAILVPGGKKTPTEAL
T4 sequence 5: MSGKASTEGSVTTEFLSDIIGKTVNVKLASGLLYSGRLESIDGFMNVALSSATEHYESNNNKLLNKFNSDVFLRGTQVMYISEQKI
T4 sequence 6: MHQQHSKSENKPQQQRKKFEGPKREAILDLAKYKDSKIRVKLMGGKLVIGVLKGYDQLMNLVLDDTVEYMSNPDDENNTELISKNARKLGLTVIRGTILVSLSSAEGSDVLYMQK
T4 sequence 7: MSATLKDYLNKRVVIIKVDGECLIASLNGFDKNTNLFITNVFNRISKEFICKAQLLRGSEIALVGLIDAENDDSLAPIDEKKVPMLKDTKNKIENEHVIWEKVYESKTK
The description is as above. To be noted: protein: recombinant; tags: as P1; copies: 1;1;1;1;1;1;1; label: 5'-FAM; single strand.

The target in data set [7] is T5, Lsm2-8 Lsm2-K20A (Saccharomyces cerevisiae, UniProt P38203;P57743;P40070;P40089;Q06406;P53905;P47093 …, K20A).
T5 sequence 1: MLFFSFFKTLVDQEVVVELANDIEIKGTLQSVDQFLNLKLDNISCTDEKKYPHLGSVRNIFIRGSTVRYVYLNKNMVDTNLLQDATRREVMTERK
T5 sequence 2: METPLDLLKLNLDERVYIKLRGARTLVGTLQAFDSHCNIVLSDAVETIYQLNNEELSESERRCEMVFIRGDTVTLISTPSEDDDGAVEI
T5 sequence 3: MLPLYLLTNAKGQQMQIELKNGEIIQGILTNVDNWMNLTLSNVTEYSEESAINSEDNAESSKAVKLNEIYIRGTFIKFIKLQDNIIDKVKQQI
T5 sequence 4: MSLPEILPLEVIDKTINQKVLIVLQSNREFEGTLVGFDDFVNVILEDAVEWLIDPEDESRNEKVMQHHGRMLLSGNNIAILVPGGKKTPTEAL
T5 sequence 5: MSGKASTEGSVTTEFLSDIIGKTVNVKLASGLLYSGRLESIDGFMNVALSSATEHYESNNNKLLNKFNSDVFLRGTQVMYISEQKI
T5 sequence 6: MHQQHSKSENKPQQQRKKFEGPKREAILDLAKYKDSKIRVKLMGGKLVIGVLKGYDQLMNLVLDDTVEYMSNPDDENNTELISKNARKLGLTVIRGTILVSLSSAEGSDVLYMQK
T5 sequence 7: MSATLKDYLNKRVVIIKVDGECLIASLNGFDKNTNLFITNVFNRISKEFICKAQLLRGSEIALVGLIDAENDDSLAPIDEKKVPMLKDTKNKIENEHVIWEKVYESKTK
The data set is described as above. To be noted: protein: recombinant; tags: as P1; copies: 1;1;1;1;1;1;1; label: 5'-FAM; single strand.

The target of data set [8] is T6, Lsm2-8 Lsm3-R21E (Saccharomyces cerevisiae, UniProt P38203;P57743;P40070;P40089;Q06406;P53905;P47093 …, R21E).
T6 sequence 1: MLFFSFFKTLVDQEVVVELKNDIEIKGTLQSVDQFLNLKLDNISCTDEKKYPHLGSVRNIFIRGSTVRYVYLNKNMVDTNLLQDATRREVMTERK
T6 sequence 2: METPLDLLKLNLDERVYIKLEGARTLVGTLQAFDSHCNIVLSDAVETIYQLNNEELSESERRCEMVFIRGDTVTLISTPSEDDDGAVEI
T6 sequence 3: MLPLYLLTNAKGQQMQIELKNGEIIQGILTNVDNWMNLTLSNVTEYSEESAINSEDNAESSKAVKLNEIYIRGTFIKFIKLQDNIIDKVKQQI
T6 sequence 4: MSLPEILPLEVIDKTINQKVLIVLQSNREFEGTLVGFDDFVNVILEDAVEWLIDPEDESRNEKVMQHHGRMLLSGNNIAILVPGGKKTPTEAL
T6 sequence 5: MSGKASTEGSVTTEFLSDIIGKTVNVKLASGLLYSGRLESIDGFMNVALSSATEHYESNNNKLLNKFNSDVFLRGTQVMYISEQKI
T6 sequence 6: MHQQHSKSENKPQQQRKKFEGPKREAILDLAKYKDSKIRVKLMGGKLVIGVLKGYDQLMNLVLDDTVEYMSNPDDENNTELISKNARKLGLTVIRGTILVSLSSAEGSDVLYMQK
T6 sequence 7: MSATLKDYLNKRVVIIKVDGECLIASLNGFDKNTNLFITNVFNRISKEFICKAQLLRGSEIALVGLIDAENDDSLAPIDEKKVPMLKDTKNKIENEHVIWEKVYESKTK
The description is as above. To be noted: protein: recombinant; tags: as P1; copies: 1;1;1;1;1;1;1; label: 5'-FAM; single strand.

Prp24 (EMSA, wild type);Lsm2-8 mostly wild type (Saccharomyces cerevisiae;Saccharomyces cerevisiae), sequence (P40070 whole entry, looked up, one chain of several): as the sequence (P40070 whole entry, looked up, one chain of several) above

As for Cy3-U6 1-112, the Kd in data set [1] worked out at 5.7 nM; in data set [2], 2.8 nM.
In the case of UUUCGUUUUU (ssRNA, 3' phosphate) [U6 104-113 3' phosphate], the Kd in data set [3] was 2320 ± 450 nM; in data set [4], 502 ± 47 nM; in data set [5], 6.13 ± 0.87 nM; in data set [6], 123 ± 12 nM; in data set [7] it was 841 ± 89 nM; in data set [8] it was 1150 ± 190 nM.
